Data taken from article PMC9122904, “Insights into the client protein release mechanism of the ATP-independent chaperone Spy” (Nature Communications, 2022).

What was measured:
Assay in all cases: BLI; Octet RED96; client biotinylated and loaded on streptavidin sensors; Spy or Spy variant in solution at 0.25, 0.5, 1, 1.5 and 2 μM; 40 mM HEPES, 150 mM NaCl, pH 7.5; Kd calculated as koff/kon
Conditions in all cases: both partners purified
Spy_(R50D) = target: T1, Spy_(R50D) (UniProt P77754 24-161, R50D)
T1 construct: source: E. coli BL21 (DE3), purified (Ni-NTA, cation exchange, SEC); not shown: His6, N-terminal, cleaved; SUMO, N-terminal, cleaved
T1 sequence (looked up): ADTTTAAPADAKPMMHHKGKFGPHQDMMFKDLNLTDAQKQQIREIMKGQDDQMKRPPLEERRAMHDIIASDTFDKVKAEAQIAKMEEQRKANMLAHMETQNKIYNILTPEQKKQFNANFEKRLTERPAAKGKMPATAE
Outline: (§1)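 Biolayer interferometry used an Octet RED96: client proteins biotinylated with EZ-link NHS-biotin (1:1 molar ratio) were loaded on streptavidin sensors, dipped into 40 mM HEPES, 150 mM NaCl, pH 7.5 containing Spy protein at 0.25, 0.5, 1, 1.5 and 2 μM, then moved to Spy-free buffer. Wavelength-shift association and dissociation curves were fitted in SigmaPlot 12.0, giving observed association rate and koff. kon came from observed rate versus Spy concentration; Kd was koff/kon.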

Spy_(K54D R55D) = target: T2, Spy_(K54D R55D) (UniProt P77754 24-161, K54D | R55D)
T2 construct: source: E. coli BL21 (DE3), purified (Ni-NTA, cation exchange, SEC); not shown: His6, N-terminal, cleaved; SUMO, N-terminal, cleaved
T2 sequence (looked up): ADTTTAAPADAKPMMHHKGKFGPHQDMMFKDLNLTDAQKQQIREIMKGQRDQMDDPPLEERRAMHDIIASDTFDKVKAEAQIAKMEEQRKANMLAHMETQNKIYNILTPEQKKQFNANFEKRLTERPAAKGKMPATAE
Outline: as §1

Spy_(D26K K54D R55D) = target: T3, Spy_(D26K K54D R55D) (UniProt P77754 24-161, D26K | K54D | R55D)
T3 construct: source: E. coli BL21 (DE3), purified (Ni-NTA, cation exchange, SEC); not shown: His6, N-terminal, cleaved; SUMO, N-terminal, cleaved
T3 sequence (looked up): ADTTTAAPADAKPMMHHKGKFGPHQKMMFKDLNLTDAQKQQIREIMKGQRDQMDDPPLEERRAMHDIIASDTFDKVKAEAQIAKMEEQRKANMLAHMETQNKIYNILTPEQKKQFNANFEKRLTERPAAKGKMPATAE
Outline: as §1

Spy D26K H65D = target: T4, Spy D26K H65D (UniProt P77754 24-161, D26K | H65D)
T4 construct: source: E. coli BL21 (DE3), purified (Ni-NTA, cation exchange, SEC); not shown: His6, N-terminal, cleaved; SUMO, N-terminal, cleaved
T4 sequence (looked up): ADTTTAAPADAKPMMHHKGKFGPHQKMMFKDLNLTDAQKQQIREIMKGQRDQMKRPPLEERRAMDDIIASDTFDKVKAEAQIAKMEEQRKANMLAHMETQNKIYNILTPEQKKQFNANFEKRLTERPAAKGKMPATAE
Outline: as §1

Spy_(K75D) = target: T5, Spy_(K75D) (UniProt P77754 24-161, K75D)
T5 construct: also called control protein; source: E. coli BL21 (DE3), purified (Ni-NTA, cation exchange, SEC); not shown: His6, N-terminal, cleaved; SUMO, N-terminal, cleaved
T5 sequence (looked up): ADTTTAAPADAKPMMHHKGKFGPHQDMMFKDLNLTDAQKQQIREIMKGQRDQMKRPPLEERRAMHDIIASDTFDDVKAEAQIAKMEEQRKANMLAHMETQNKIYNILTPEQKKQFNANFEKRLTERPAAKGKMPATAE
Outline: as §1

Spy D26K K75D = target: T6, Spy D26K K75D (UniProt P77754 24-161, D26K | K75D)
T6 construct: source: E. coli BL21 (DE3), purified (Ni-NTA, cation exchange, SEC); not shown: His6, N-terminal, cleaved; SUMO, N-terminal, cleaved
T6 sequence (looked up): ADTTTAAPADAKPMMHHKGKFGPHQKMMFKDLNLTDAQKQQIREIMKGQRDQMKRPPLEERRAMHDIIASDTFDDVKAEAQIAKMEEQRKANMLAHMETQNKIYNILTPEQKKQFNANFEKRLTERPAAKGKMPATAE
Outline: as §1

Spy_(R89D D26K) = target: T7, Spy_(R89D D26K) (UniProt P77754 24-161, D26K | R89D)
T7 construct: also called D26K R89D; source: E. coli BL21 (DE3), purified (Ni-NTA, cation exchange, SEC); not shown: His6, N-terminal, cleaved; SUMO, N-terminal, cleaved
T7 sequence (looked up): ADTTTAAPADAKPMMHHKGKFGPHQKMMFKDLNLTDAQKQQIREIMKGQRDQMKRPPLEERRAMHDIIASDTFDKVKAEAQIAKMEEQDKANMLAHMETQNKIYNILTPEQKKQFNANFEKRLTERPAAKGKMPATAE
Outline: as §1

Spy_(H96D) = target: T8, Spy_(H96D) (UniProt P77754 24-161, H96D)
T8 construct: source: E. coli BL21 (DE3), purified (Ni-NTA, cation exchange, SEC); not shown: His6, N-terminal, cleaved; SUMO, N-terminal, cleaved
T8 sequence (looked up): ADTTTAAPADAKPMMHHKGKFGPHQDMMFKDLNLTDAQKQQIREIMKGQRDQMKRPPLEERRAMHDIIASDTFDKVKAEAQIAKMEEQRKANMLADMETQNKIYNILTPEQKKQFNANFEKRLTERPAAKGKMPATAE
Outline: as §1

B1: Im7 H40W L53A I54A (natural protein)
chain: MELKNSISDYTEAEFVQLLKEIEKENVAATDDVLDVLLEWFVKITEHPDGTDAAYYPSDNRDDSPEGIVKEIKEWRAANGKPGFKQG
modifications: biotin (EZ-link NHS-biotin, 1:1 molar ratio of biotin to protein)
notes: Im7 (colicin E7 immunity protein) with H40W L53A I54A; Spy was made with an N-terminal His6-SUMO tag that was cleaved; also called Im7AAW; partially folded client; source: purified by a similar procedure to Spy
Spy_(R50D)
  koff: 0.543 s⁻¹
Spy_(K54D R55D)
  koff: 0.0743 s⁻¹
Spy_(D26K K54D R55D)
  koff: 0.425 s⁻¹
Spy D26K H65D
  koff: 0.284 s⁻¹
Spy_(K75D)
  koff: 0.183 s⁻¹
Spy D26K K75D
  koff: 0.0595 s⁻¹
Spy_(R89D D26K)
  koff: 0.2 s⁻¹
Spy_(H96D)
  koff: 0.42 s⁻¹
